Here are results for one molecule from patent US20160116478A1 (ORDER MADE MEDICAL RESEARCH, published 2016).

Experiment [1] addresses T1, partial protein of human LGR4 (amino acids 311 to 577) (human, UniProt Q9BXB1 311-577).
T1 construct: Run as crude E. coli culture lysate, denatured, on SDS-PAGE and Western blot; also called LGR4 partial protein; partial protein of LGR4; not shown: N-terminal Trx-, S- and His-tags from pET32b vector; C-terminal His-tag from pET32b vector
T1 sequence: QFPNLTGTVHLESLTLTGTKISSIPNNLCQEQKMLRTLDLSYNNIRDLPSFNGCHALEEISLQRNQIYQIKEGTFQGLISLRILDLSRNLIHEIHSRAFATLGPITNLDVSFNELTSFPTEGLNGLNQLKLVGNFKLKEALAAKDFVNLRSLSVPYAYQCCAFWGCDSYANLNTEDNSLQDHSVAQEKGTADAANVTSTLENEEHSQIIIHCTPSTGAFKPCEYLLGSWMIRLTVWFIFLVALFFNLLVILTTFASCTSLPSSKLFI
Put plainly: Western blot of E. coli lysate expressing the partial protein. The procedure:
(§1) After electrophoresis, the proteins were transferred onto a PVDF membrane. Skimmed milk dissolved at a concentration of 5% (w/v) in TBS-T was used to block the membrane at room temperature for 30 minutes, and the membrane was washed twice with TBS-T. Among the monoclonal antibodies obtained in Example 1. (7), Mu2C15 was diluted to 1 μg/mL with TBS-T and reacted with the membrane for 1 hour at room temperature. After washing three times with TBS-T, anti-mouse IgG polyclonal antibody-HRP label was diluted 100,000-fold with TBS-T for use as a secondary antibody. This dilution was reacted with the membrane at room temperature for 30 minutes, followed by washing three times with TBS-T. The membrane was soaked in Immobilon and then wrapped, followed by signal detection with LAS-3000 (FIG. 15b)

For experiment [2], the target named is T2, partial protein of human LGR5 (amino acids 319 to 563) (human, UniProt O75473 319-563).
T2 construct: Run as crude E. coli culture lysate, denatured, on SDS-PAGE and Western blot; also called LGR5 partial protein; partial protein of LGR5; not shown: N-terminal Trx-, S- and His-tags from pET32a vector; C-terminal His-tag from pET32a vector
T2 sequence: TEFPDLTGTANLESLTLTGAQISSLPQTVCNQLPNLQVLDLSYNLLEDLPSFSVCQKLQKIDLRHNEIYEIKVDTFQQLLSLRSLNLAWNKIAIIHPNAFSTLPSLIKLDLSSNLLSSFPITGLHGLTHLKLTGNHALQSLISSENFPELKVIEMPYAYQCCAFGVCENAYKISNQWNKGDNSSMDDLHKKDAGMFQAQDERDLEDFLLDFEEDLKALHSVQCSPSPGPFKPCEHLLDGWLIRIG
The description is as above. The protocol: as §1

B1: Mu2C15 antibody (monoclonal antibody produced by Mouse-Mouse hybridoma Mu2C15) (antibody, V domains shown)
VH: QVQLQQSAAELARPGASVKMSCKASGYTFTTYTMHWVKQRPGQGLEWIGYINPNNGYTEFNQKFKDKTTLTADKSSSTAYMQLSSLTSEDSAVYYCARRDYYRFSTGFAYWGQGTLVTVSA
VL: DVVMTQTPLSLPVSLGDQASISCRSSQSLVHTNGNTYLHWYLQKPGQSPKLLIYKVSNRFSGVPDRFSGSGSGTDFTLKISRVEAEDLGVYFCSQSTHVPYTFGGGTKLEIK
notes: Mouse hybridoma antibody; Used as culture supernatant or Protein G purified, and unlabeled when immobilized in the sandwich ELISA; also called clone No. Mu2C15; anti-LGR6 antibody
As for B1, the binding result in experiment [1] and in experiment [2] was “no binding (tested: 1 µg/mL)” in each case.
